One experiment addresses HLA-B*48:01. Briefly: IEDB peptide-MHC binding, purified MHC/direct/fluorescence; filed as Kd, often an IC50 or EC50 that approximates it; ≥ and ≤ were set here for values at or beyond the usual limits of such assays.
Another experiment has as its target HLA-A*24:02. The experiment can be described thus: IEDB peptide-MHC binding, purified MHC/competitive/fluorescence; ≥ and ≤ were set here for values at or beyond the usual limits of such assays.
For a further experiment, the target named is HLA-A*69:01. Briefly: IEDB peptide-MHC binding, purified MHC/direct/fluorescence; filed as Kd, often an IC50 or EC50 that approximates it; ≥ and ≤ were set here for values at or beyond the usual limits of such assays.
For experiment [1], the target named is HLA-B*15:01. The description is as above.
Another experiment deals with HLA-B*08:01. Described as above. Conditions: source organism: Mammarenavirus brazilense.
A further experiment concerns the target HLA-A*31:01. The experiment is described as above.
The target of experiment [2] is HLA-B*44:02. The experiment is described as above.
A further experiment concerns the target HLA-B*27:05. The description is as above.
For a further experiment, the target named is HLA-A*03:01. The description is as above.
The next experiment concerns the target HLA-A*01:01. Described as above.
The target in the next experiment is HLA-A*11:01. The experiment is described as above.
The target in the next experiment is HLA-B*07:02. The experiment is described as above.
A further experiment addresses HLA-B*58:01. The description is as above.
Experiment [3] deals with HLA-A*02:01. Described as above.
Experiment [4] has as its target HLA-B*57:01. Described as above.
Experiment [5] concerns the target HLA-B*46:01. The description is as above.
The target of experiment [6] is HLA-A*26:01. The experiment is described as above.
In experiment [7] the target is HLA-A*02:01. Briefly: IEDB peptide-MHC binding, purified MHC/competitive/fluorescence; ≥ and ≤ were set here for values at or beyond the usual limits of such assays.
In experiment [8] the target is HLA-A*26:01. The experiment can be described thus: IEDB peptide-MHC binding, purified MHC/competitive/fluorescence; filed as Kd, often an IC50 or EC50 that approximates it; ≥ and ≤ were set here for values at or beyond the usual limits of such assays.
Experiment [9] has as its target HLA-B*46:01. Described as above.
Another experiment has as its target HLA-B*44:03. Briefly: IEDB peptide-MHC binding, purified MHC/competitive/radioactivity; filed as Kd, often an IC50 or EC50 that approximates it; ≥ and ≤ were set here for values at or beyond the usual limits of such assays. Conditions: source organism: SARS coronavirus Tor2.
For experiment [10], the target named is HLA-B*44:02. Described as above. To be noted: source organism: SARS coronavirus Tor2.
For experiment [11], the target named is HLA-B*18:01. The experiment is described as above. To be noted: source organism: SARS coronavirus Tor2.
The target of another experiment is HLA-B*40:02. The description is as above. To be noted: source organism: SARS coronavirus Tor2.
The target in experiment [12] is HLA-B*40:01. The description is as above. To be noted: source organism: SARS coronavirus Tor2.
Experiment [13] has as its target HLA-B*15:01. Briefly: IEDB peptide-MHC binding, purified MHC/competitive/fluorescence; filed as Kd, often an IC50 or EC50 that approximates it; ≥ and ≤ were set here for values at or beyond the usual limits of such assays.
In experiment [14] the target is HLA-A*02:01. The experiment is described as above. Conditions: source organism: Salmonella enterica subsp. enterica serovar Typhi.
The target of experiment [15] is HLA-B*57:01. Briefly: IEDB peptide-MHC binding, purified MHC/competitive/radioactivity; filed as Kd, often an IC50 or EC50 that approximates it; ≥ and ≤ were set here for values at or beyond the usual limits of such assays.
A further experiment has as its target HLA-A*02:02. The experiment is described as above. To be noted: source organism: Lassa virus Josiah.
The target in another experiment is HLA-A*68:02. The experiment is described as above. To be noted: source organism: Lassa virus Josiah.
The next experiment deals with HLA-A*02:06. The experiment is described as above. To be noted: source organism: Lassa virus Josiah.
Experiment [16] has as its target HLA-A*02:01. The description is as above. To be noted: source organism: Lassa virus Josiah.
The next experiment has as its target HLA-A*02:03. Described as above. To be noted: source organism: Lassa virus Josiah.
The target of experiment [17] is HLA-B*18:01. Briefly: IEDB peptide-MHC binding, purified MHC/direct/fluorescence; filed as Kd, often an IC50 or EC50 that approximates it; ≥ and ≤ were set here for values at or beyond the usual limits of such assays.
Experiment [18] addresses HLA-B*40:01. Described as above.
[19] abbreviates: source organism: Zaire ebolavirus.
Setting [20] is: source organism: Mammarenavirus brazilense.
[21] abbreviates: source organism: Sudan ebolavirus.
Where [22] appears, read: source organism: Vaccinia virus WR.
Setting [23] is: source organism: Bacillus anthracis str. A0488.
Where [24] appears, read: source organism: Bacillus cereus G9241.
The mark [25] stands for this setting: source organism: Dengue virus 2 Jamaica/1409/1983.
Setting [26] is: source organism: Yellow fever virus.
Setting [27] is: source organism: West Nile virus.
Where [28] appears, read: source organism: Salmonella enterica.

pIC50, pKd: −log10 of the molar value.

Consider AEFNEDGLL, for which, in the experiment with HLA-B*48:01 (source organism: Listeria monocytogenes serotype 4b str. H7858), the pKd is at most 4.70.

On to AYQGDYKLF, for which the negative-log IC50 (pIC50) in the experiment with HLA-A*24:02 (setting [19]) was 6.27.

In the case of EFKSRFFVM, the pKd was at most 4.70 with HLA-A*69:01 (setting [20]); at most 4.70 in the experiment with HLA-B*15:01 [1] (setting [20]); 6.44 with HLA-B*08:01; at most 4.70 with HLA-A*31:01 (setting [20]); at most 4.70 in the experiment with HLA-B*44:02 [2] (setting [20]); at most 4.70 with HLA-B*27:05 (setting [20]). Also, the pKd with HLA-A*03:01 (setting [20]), in the experiment with HLA-A*01:01 (setting [20]), in the experiment with HLA-A*11:01 (setting [20]), with HLA-B*07:02 (setting [20]), with HLA-B*48:01 (setting [20]) and with HLA-B*58:01 (setting [20]) was at most 4.70 each time. In addition, the pKd in the experiment with HLA-A*02:01 [3] (setting [20]), in the experiment with HLA-B*57:01 [4] (setting [20]) and with HLA-B*46:01 [5] (setting [20]) was at most 4.70 throughout.

Sequence EGVVAFLIL gave a pIC50 in the experiment with HLA-A*24:02 (setting [19]) of at most 4.10.

ESFDLAGLF gave a pKd in the experiment with HLA-A*26:01 [6] (source organism: Mammarenavirus juninense) of 8.89.

For the sequence FSAWISHRP, the pIC50 was 6.29 with HLA-A*24:02 (source organism: Variola virus) and 4.42 in the experiment with HLA-A*02:01 [7] (source organism: Variola virus).

Regarding GAQHSTTLF, the pIC50 with HLA-A*24:02 (setting [21]) was 4.38.

GLITCKAFG: the pIC50 with HLA-A*24:02 (setting [22]) is at most 3.77; with HLA-A*02:01 [7] (setting [22]), 4.22.

In turn, GMNEVTKAL showed a pKd with HLA-B*48:01 (source organism: Giardia lamblia ATCC 50803) of 6.44.

In the experiment with HLA-A*26:01 [8] (setting [23]), HIVYAVPLM showed a pKd of 8.09.

Take IAFCNWAFV: the pKd in the experiment with HLA-A*69:01 (source organism: Vibrio cholerae) is 7.22; with HLA-B*46:01 [9] (source organism: Vibrio cholerae 2740-80), 5.36.

In the experiment with HLA-B*46:01 [9] (setting [24]), ISRDIMDAY had a pKd of 7.38.

For IYTSGKRSN, the negative-log IC50 (pIC50) with HLA-A*24:02 (setting [19]) is 5.20.

Regarding KDYMSLSEQL, the pKd with HLA-B*44:03 is at most 4.53; in the experiment with HLA-B*44:02 [10], at most 4.59; with HLA-B*18:01 [11] it was at most 4.15; with HLA-B*40:02, 5.24; with HLA-B*40:01 [12], 5.21.

With KQSSFLSSL, the pKd in the experiment with HLA-B*15:01 [13] (source organism: Salmonella enterica subsp. enterica serovar Typhi) was 7.03; with HLA-A*02:01 [14] it was 7.42.

Sequence KYYIKNIGN gave a pIC50 with HLA-A*24:02 (source organism: Vaccinia virus) of at most 3.99.

LKVFLPNPA showed a pIC50 with HLA-A*24:02 (source organism: Variola virus) of 4.69.

With LTVVPLMAF, the pKd with HLA-B*15:01 [13] (setting [24]) is 6.83.

As to LYLVDYGLV, the pIC50 with HLA-A*24:02 (setting [22]) is 6.67; in the experiment with HLA-A*02:01 [7] (setting [22]) it was at most 4.05.

NTARLMAGA showed a pKd with HLA-A*26:01 [6] (source organism: Mycobacterium tuberculosis) of at most 4.70.

With PASIAARGYI, in the experiment with HLA-B*57:01 [15] (setting [25]), the pKd was 6.44.

In the experiment with HLA-A*24:02 (setting [19]), QARFSGLLI had a pIC50 of 4.78.

As to RFSTSLLFLN, the pKd with HLA-B*57:01 [15] (source organism: Dengue virus 4 Philippines/H241/1956) is 5.96.

As to RLLGTFTWT, the pKd in the experiment with HLA-A*02:02 was 6.49; with HLA-A*68:02, at most 5.30; in the experiment with HLA-A*02:06, 6.86; with HLA-A*02:01 [16] it was 7.47; with HLA-A*02:03, 6.98.

As to RTSKKRSWPL, in the experiment with HLA-B*57:01 [15] (setting [25]), the pKd is 6.16.

As to SIIGILHLI, the pKd in the experiment with HLA-A*26:01 [8] (source organism: Influenza A virus (A/Memphis/1/1978(H1N1))) is 4.89.

On to SSARYDVAL, for which the pKd with HLA-A*31:01 (setting [26]), with HLA-B*44:02 [2] (setting [26]), with HLA-B*18:01 [17] (setting [26]), with HLA-B*27:05 (setting [26]), with HLA-A*03:01 (setting [26]) and with HLA-A*01:01 (setting [26]) was at most 4.70 in each case. The pKd in the experiment with HLA-A*11:01 (setting [26]), with HLA-B*07:02 (source organism: Yellow fever virus 17D), in the experiment with HLA-B*58:01 (setting [26]), with HLA-A*02:01 [3] (setting [26]), with HLA-B*57:01 [4] (setting [26]) and in the experiment with HLA-B*46:01 [5] (setting [26]) was at most 4.70 throughout.

On to STSQETWNRQ, for which the pKd with HLA-B*57:01 [15] (source organism: Dengue virus 1 Brazil/97-11/1997) is 6.03.

With TRAVGKPLL, the negative-log Kd (pKd) in the experiment with HLA-A*69:01 (setting [27]), with HLA-B*15:01 [1] (setting [27]), in the experiment with HLA-B*44:02 [2] (setting [27]), in the experiment with HLA-B*18:01 [17] (setting [27]), with HLA-B*27:05 (setting [27]) and with HLA-A*03:01 (setting [27]) was at most 4.70 throughout. In addition, the pKd in the experiment with HLA-B*07:02 (setting [27]), with HLA-B*48:01 (setting [27]), in the experiment with HLA-B*58:01 (setting [27]), with HLA-A*02:01 [3] (setting [27]), with HLA-B*57:01 [4] (setting [27]) and with HLA-B*40:01 [18] (setting [27]) was at most 4.70 in each case. In the experiment with HLA-B*46:01 [5] (setting [27]), this sequence showed a pKd of at most 4.70.

For TTQALQLFL, the pIC50 in the experiment with HLA-A*24:02 (setting [21]) was 5.18; with HLA-A*02:01 [7] (setting [21]) it was 4.98.

On to VLNGAPYSY, for which, in the experiment with HLA-B*15:01 [13] (setting [23]), the negative logarithm of the Kd (pKd) was 7.27.

Consider YPVWLTKHL, for which the pKd is 5.67 with HLA-B*18:01 [17] (setting [28]) and 5.53 in the experiment with HLA-B*40:01 [18] (setting [28]).

For the origin of these results see the Immune Epitope Database (IEDB).
